The assay addresses TEA domain transcription factor 1 (TEAD1) on the HuProt Human Proteome Microarray v3.1 (human) (UniProt P28347). Kind of assay: peptide or protein array; purified FLAG-Lamin A/C (WT or Q353R) applied to a HuProt Human Proteome Microarray v3.1; two samples each, averages of the pairs compared.
Sequence of UniProt P28347 (P28347 whole entry, the tested form may be a part): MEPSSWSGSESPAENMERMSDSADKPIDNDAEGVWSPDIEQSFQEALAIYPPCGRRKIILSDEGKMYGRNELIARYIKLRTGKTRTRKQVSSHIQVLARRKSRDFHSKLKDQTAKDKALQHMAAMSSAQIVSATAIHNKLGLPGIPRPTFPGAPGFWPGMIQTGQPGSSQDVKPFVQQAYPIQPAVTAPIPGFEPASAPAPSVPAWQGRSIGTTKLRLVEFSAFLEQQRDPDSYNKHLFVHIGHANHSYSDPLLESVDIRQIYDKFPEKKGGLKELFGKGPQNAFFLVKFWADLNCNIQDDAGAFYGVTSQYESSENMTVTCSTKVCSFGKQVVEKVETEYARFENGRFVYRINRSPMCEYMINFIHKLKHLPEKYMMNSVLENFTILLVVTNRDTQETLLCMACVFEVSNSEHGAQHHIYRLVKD

“FLAG-tagged Q353R Lamin A/C (from UniProt P02545 1-646) (natural protein)” came in with a fold affinity against WT Lamin A/C of 8 fold.

For the origin of these results see PMC10104473.
